Patent US20200339690A1 (JOUNCE THERAPEUTICS, published 2020)
Positions count from the first letter of the chain named.

B1: J-19.h1 (antibody, human IgG4 S228P, kappa, V domains shown)
VH: QITLKESGPTLVKPTQTLTLTCTFSGFSLNTYAMGVSWIRQPPGKALEWLASIWWNGNKYNNPSLKSRLTVTKDTSKNQVVLTMTNMDPVDTATYYCAHSRIIRFTDYVMDAWGQGTLVTVSS
VL: DIQMTQSPSSLSTSVGDRVTITCRASEDIYNDLAWYQQKPGKAPKLLIYNANSLHTGVASRFSGSGSGTDFTFTISSLQPEDVATYFCQQYYDYPLTFGQGTKLEIKR
notes: Humanized, human IgG4 backbone
B2: J-19.h3 (antibody, human IgG4 S228P, kappa, V domains shown)
VH: B1 VH with I2V, T10S, V71I, T83K, M84V, V90A, L118T
VL: DIVMTQSPSSLSASVGDTVTITCRASEDIYNDLAWYQQKPGKAPQLLLYNANSLHTGVPSRFSGSGSGTDYTLTISTLQPEDFATYYCQQYYDYPLTFGPGTKVHIKR
notes: as for B1
B3: J-19.h4 (antibody, human IgG4 S228P, kappa, V domains shown)
VH: B1 VH with I2V, T10A, Q16H, V71I, T72S, V90E, Y95F, Q115R, L118T
VL: B2 VL
notes: as for B1

Legend:
[1] = biological target: T1, human LILRB2 expressed on cells (human, UniProt Q8N423 22-597); test: cell-based or functional assay
T1 sequence (Q8N423 other isoform, or with tags, fused parts or gaps limits assumed): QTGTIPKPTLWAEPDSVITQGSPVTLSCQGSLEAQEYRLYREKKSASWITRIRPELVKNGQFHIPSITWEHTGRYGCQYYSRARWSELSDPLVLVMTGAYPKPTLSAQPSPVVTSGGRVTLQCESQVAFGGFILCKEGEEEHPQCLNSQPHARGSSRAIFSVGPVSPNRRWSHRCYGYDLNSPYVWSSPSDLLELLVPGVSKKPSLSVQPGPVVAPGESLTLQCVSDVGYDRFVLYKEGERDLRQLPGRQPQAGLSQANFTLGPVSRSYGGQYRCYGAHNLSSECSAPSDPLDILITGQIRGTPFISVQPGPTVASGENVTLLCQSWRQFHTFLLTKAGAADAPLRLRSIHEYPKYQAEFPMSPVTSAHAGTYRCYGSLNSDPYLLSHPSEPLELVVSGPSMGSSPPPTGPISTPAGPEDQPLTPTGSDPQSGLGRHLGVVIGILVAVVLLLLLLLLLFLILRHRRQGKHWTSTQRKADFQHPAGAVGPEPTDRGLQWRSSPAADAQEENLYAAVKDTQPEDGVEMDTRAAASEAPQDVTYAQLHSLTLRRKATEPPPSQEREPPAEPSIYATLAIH

[2] = biological target: human LILRB2-His (human, UniProt Q8N423 22-460); test: SPR, Sierra Sensors MASS-2; antibody captured on anti-human Fc, LILRB2-His 65 to 0.27 nM, 1:1 Langmuir fit
Sequence of human LILRB2-His (Q8N423 other isoform, or with tags, fused parts or gaps): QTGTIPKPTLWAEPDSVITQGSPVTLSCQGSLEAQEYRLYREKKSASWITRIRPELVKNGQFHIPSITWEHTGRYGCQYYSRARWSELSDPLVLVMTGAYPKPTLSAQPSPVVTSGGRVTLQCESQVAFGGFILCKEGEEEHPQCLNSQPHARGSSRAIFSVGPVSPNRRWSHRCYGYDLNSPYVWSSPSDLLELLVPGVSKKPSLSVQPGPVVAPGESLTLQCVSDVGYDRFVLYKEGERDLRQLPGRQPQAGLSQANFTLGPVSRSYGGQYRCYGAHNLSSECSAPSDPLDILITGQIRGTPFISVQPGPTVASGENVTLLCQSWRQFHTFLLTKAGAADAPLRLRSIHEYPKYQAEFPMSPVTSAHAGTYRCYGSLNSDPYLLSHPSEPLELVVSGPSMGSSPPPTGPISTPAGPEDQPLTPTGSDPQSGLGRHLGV
Experimental: Using a Mass-2 (Sierra Sensors) high capacity amine chip preimmobilized with AffiniPure Goat Anti-Human IgG, Fcγ Fragment Specific antibody, humanized antibodies were captured on the anti-human surface and then binding to human LILRB2-His was measured by flowing six different concentrations from 65 to 0.27 nM of the analyte over the antibody surface. The anti-LILRB2 surface was removed (10 mM Glycine, pH 2.0) and recaptured between all concentrations or buffer only cycles. The data was analyzed using the Sierra Analyzer software (version 3.1.14). All curves were double subtracted and fit to a 1:1 Langmuir Fit.

[3] = biological target: T2, human LILRA4 (human, UniProt P59901 24-499); test: flow cytometry, LILRA4 CHOs
T2 construct: Over-expressed on CHO-s cells; also called hLILRA4
T2 sequence (P59901 other isoform, or with tags, fused parts or gaps limits assumed): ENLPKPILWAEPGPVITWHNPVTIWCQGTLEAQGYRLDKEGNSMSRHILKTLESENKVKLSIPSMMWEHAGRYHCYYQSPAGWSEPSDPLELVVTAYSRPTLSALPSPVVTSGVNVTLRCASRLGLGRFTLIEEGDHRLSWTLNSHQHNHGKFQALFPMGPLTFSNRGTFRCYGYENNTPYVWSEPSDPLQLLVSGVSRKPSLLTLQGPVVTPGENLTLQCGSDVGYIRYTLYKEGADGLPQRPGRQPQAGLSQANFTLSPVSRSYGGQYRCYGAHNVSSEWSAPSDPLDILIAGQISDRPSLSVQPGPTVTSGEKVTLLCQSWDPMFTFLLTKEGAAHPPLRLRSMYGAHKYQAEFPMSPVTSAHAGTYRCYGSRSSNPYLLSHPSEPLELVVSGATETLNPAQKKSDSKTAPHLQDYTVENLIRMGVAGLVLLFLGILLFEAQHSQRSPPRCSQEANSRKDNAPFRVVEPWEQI
Experimental: (§1) To test for specificity to hLILRB2 and not towards any of the ten LILR family members, a multiplexed cell-based barcoding approach was used by staining cells with Far Red and/or Violet Cell Trace dyes (Thermo Scientific) according to manufacturer's protocol or left unstained. In brief, cells were washed twice with 1×DPBS and then incubated with diluted dye in 1×DPBS for 20 minutes at 37° C., mixing gently every 5-10 minutes. Dye labeling was quenched by adding equal volume of 100% HI-FBS (Sigma) to the cells. Note that LILRB1, LILRB2, LILRB3, LILRB4, and LILRB5 cell lines are also GFP-positive, while LILRA1, LILRA2, LILRA3, LILRA4, LILRA5, and LILRA6 cell lines are GFP-negative. The cells were then washed twice in 1×DPBS and then all 11 cell lines were combined per well in a 96-well round bottom tissue-culture treated plate. At least 25×10³ cells of each cell-line were plated per well. Cells were then re-suspended in primary antibody (anti-LILRB2 mAbs or control) prepared in FACS buffer (1×DPBS containing 2% HI-FBS (Sigma)+0.05% Sodium Azide). After incubation at 4° C. for 30 minutes, cells were washed twice with 1×DPBS and re-suspended in anti-human IgG-PE (BioLegend) diluted 1:200 in FACS buffer. Following a 30 minute incubation at 4° C., protected from light, cells were washed in 1×DPBS and re-suspended in fix buffer (1.5% paraformaldehyde diluted in 1×DPBS). Samples were analyzed using the Celesta flow cytometer analyzer (BD Biosciences). Geometric mean fluorescence intensity (gMFI) of PE was determined for each antibody across each cell line. Background MFI was detected with isotype control and relative binding of antibodies tested was measured as a fold over isotype.

[4] = biological target: T1, human LILRB2 expressed on cells; test: flow cytometry, LILRB2 CHOs
[5] = biological target: T3, human LILRA5 (human, UniProt A6NI73 42-299); test: flow cytometry, LILRA5 CHOs
T3 construct: Over-expressed on CHO-s cells; also called hLILRA5
T3 sequence (A6NI73 42-299 limits assumed): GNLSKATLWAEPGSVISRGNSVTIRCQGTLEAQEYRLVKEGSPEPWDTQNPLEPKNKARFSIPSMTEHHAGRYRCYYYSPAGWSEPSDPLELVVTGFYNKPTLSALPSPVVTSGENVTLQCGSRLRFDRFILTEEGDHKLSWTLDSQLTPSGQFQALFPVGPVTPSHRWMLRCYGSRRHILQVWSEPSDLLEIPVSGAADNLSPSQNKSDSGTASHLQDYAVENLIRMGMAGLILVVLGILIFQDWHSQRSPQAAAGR
Experimental: as §1

[6] = biological target: T4, human LILRA3 (human, UniProt Q8N6C8 24-439); test: flow cytometry, LILRA3 CHOs
T4 construct: Over-expressed on CHO-s cells; also called hLILRA3
T4 sequence (Q8N6C8 24-439 limits assumed): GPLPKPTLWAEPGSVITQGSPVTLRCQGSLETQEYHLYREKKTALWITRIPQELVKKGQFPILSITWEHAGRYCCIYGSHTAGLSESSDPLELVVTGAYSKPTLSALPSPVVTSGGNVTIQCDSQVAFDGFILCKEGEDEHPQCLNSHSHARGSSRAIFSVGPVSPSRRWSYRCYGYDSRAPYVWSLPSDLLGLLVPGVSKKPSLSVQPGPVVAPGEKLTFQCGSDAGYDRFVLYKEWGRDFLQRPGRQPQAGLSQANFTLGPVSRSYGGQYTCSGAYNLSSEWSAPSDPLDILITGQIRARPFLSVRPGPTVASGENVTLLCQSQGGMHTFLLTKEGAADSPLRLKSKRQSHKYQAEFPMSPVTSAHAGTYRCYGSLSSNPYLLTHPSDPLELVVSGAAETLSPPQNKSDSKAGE
Experimental: as §1

[7] = biological target: T1, human LILRB2 expressed on cells; test: HLA-A2:LILRB2 blocking; HLA-A2 tetramer on primary human macrophages, flow cytometry
Experimental: (§2) The potency of select humanized variants in blocking the interaction of HLA-G and HLA-A2 with primary human macrophage-expressed hLILRB2 were assessed. Primary human monocytes were differentiated into macrophages in the presence of M-CSF. After seven days of differentiation, 1×10⁵ HMDMs were plated in 96-well round-bottom tissue culture-treated plate and washed twice with 1×DPBS (Gibco) and then incubated with 50 μL primary antibody (anti-LILRB2 mAbs or control) prepared in FACS buffer (1×DPBS containing 2% HI-FBS (Sigma)+0.05% Sodium Azide). After incubation with mAbs for 30 minutes at 4° C., cells were washed twice in FACS buffer and then resuspended in 50 μL of FACS buffer containing 5 μg/mL APC-conjugated HLA-G or HLA-A2 tetramer (Fred Hutch). Cells were incubated protected from light for 30-60 minutes at 4° C. After incubation with tetramer, cells were washed in FACS buffer and re-suspended in fix buffer (1.5% paraformaldehyde diluted in 1×DPBS). Samples were analyzed using the Celesta flow cytometer analyzer (BD Biosciences).

[8] = biological target: T5, human LILRB4 (human, UniProt Q8NHJ6 22-448); test: flow cytometry, LILRB4 CHOs
T5 construct: Over-expressed on CHO-s cells; also called hLILRB4
Experimental: as §1

[9] = biological target: T1, human LILRB2 expressed on cells; test: HLA-G:LILRB2 blocking; HLA-G tetramer on primary human macrophages, flow cytometry
Experimental: as §2

[10] = biological target: T6, human LILRA1 (human, UniProt O75019 17-489); test: flow cytometry, LILRA1 CHOs
T6 construct: Over-expressed on CHO-s cells; also called hLILRA1
T6 sequence (O75019 17-489 limits assumed): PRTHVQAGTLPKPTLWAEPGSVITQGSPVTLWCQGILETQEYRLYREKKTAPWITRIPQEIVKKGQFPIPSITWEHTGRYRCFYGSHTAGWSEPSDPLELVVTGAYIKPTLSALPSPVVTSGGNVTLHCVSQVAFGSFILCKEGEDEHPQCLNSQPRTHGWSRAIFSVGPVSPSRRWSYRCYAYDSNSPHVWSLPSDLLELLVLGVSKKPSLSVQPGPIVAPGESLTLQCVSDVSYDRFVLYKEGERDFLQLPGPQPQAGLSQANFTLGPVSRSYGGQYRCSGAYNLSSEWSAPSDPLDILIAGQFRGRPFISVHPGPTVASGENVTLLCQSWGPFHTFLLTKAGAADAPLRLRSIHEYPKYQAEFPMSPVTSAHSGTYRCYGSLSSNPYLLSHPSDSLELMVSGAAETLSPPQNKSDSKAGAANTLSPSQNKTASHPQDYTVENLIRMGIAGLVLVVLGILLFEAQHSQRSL
Experimental: as §1

[11] = biological target: T7, human LILRA6 (human, UniProt Q6PI73 24-481); test: flow cytometry, LILRA6 CHOs
T7 construct: Over-expressed on CHO-s cells; also called hLILRA6
T7 sequence (Q6PI73 24-481 limits assumed): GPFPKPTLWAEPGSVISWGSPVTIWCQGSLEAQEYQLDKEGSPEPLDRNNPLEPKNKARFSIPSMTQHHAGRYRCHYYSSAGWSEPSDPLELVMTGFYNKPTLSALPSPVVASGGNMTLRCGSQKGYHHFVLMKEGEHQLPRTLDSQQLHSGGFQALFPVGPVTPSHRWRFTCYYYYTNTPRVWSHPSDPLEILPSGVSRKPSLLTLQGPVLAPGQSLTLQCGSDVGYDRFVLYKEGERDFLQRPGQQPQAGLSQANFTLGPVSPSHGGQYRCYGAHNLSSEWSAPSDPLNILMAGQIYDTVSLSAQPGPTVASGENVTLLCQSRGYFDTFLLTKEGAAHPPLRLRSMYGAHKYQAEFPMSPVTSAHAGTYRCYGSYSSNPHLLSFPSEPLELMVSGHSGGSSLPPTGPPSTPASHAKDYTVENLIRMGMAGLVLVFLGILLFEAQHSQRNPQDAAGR
Experimental: as §1

[12] = biological target: T8, human LILRB1 (human, UniProt Q8NHL6 24-650); test: flow cytometry, LILRB1 CHOs
T8 construct: Over-expressed on CHO-s cells; also called hLILRB1
T8 sequence (Q8NHL6 24-650 limits assumed): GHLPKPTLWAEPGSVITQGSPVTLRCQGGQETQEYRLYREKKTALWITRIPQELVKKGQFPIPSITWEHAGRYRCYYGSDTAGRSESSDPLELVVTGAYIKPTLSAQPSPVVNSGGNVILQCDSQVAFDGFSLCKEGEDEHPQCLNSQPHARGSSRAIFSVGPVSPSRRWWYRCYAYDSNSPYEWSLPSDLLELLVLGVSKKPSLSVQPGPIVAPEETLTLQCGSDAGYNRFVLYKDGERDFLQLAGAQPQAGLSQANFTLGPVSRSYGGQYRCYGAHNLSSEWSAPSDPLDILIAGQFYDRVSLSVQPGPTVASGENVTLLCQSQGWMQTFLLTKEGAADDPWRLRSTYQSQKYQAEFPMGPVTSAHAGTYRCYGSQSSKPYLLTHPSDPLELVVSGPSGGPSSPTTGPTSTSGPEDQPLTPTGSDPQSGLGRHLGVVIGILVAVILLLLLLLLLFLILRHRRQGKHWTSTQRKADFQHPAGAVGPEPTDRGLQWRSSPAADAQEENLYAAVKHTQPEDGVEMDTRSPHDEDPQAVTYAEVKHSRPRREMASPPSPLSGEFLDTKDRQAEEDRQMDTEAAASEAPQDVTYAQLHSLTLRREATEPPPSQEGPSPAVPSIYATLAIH
Experimental: as §1

[13] = biological target: T1, human LILRB2 expressed on cells; test: flow cytometry, binding to hLILRB2 CHOs
[14] = biological target: T9, human LILRB3 (human, UniProt O75022 24-631); test: flow cytometry, LILRB3 CHOs
T9 construct: Over-expressed on CHO-s cells; also called hLILRB3
Experimental: as §1

[15] = biological target: T10, human LILRB5 (human, UniProt O75023 24-590); test: flow cytometry, LILRB5 CHOs
T10 construct: Over-expressed on CHO-s cells; also called hLILRB5
T10 sequence (O75023 24-590 P542R limits assumed): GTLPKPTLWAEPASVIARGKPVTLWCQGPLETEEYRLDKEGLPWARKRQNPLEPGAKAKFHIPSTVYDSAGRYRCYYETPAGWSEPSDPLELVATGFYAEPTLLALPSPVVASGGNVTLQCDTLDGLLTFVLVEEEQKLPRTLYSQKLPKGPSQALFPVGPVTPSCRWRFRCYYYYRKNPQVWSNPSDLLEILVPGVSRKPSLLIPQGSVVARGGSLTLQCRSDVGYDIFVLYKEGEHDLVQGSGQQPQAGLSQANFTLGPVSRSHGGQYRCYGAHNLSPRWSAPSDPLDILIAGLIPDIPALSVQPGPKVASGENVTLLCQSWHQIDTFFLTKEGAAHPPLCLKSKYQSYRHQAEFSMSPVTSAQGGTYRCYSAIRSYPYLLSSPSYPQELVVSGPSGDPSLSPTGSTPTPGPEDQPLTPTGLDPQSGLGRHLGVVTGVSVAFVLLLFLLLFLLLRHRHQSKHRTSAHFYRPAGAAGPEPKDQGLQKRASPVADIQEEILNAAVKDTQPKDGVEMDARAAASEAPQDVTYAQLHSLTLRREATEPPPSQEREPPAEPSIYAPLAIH
Experimental: as §1

[16] = biological target: T11, human LILRA2 (human, UniProt Q8N149 24-483); test: flow cytometry, LILRA2 CHOs
T11 construct: Over-expressed on CHO-s cells; also called hLILRA2
T11 sequence (Q8N149 24-483 S135L limits assumed): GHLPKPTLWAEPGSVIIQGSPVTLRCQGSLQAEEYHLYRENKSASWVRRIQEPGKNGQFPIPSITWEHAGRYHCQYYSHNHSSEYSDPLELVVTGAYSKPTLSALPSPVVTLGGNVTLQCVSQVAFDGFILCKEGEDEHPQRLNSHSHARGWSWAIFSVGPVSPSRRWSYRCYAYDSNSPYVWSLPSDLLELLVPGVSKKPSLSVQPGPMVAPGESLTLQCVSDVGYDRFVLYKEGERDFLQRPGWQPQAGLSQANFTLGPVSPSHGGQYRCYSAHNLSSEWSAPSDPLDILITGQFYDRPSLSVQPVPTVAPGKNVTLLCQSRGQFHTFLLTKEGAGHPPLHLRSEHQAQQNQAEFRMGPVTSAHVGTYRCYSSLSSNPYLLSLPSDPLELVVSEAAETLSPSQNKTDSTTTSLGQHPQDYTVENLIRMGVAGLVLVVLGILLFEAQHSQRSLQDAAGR
Experimental: as §1

Binder | EC50, IL-6 production by LPS-stimulated HMDMs [1] | EC50, TNFa production by LPS-stimulated HMDMs [1] | IC50, CCL2 production by LPS-stimulated HMDMs [1] | IC50, IL-10 production by LPS-stimulated HMDMs [1] | Kd [2] | koff [2] | kon [2] | binding (fold over iso) [3] | binding result [3] | binding (fold over iso) [4] | binding (fold over iso) [6] | binding result [6] | EC50 [7] | EC50 [9] | binding (fold over iso) [10] | binding result [10] | binding (fold over iso) [11] | binding result [11] | binding (fold over iso) [12] | binding result [12] | further results
B1 | 0.085 nM | 0.076 nM | 0.005 nM | 0.45 nM | 2.73 nM | 0.00107 s⁻¹ | 391000 M⁻¹ s⁻¹ | 0.95 fold over iso | no binding | 73.2 fold over iso | 0.97 fold over iso | no binding | 0.083 nM | 0.162 nM | 0.95 fold over iso | no binding | 0.98 fold over iso | no binding | 0.79 fold over iso | no binding | binding (fold over iso) [5]: 1.34 fold over iso; binding result [5]: no binding; binding (fold over iso) [8]: 1.22 fold over iso; binding result [8]: no binding; EC50 [13]: 0.032 nM; binding (fold over iso) [14]: 1 fold over iso; binding result [14]: no binding; binding (fold over iso) [15]: 1.01 fold over iso; binding result [15]: no binding; binding (fold over iso) [16]: 0.88 fold over iso; binding result [16]: no binding
B2 | 0.083 nM | 0.087 nM | 5.9 nM | 0.27 nM | 1.96 nM | 0.00101 s⁻¹ | 518000 M⁻¹ s⁻¹ | 0.99 fold over iso | no binding | 79.4 fold over iso | 0.92 fold over iso | no binding | 0.103 nM | 0.113 nM | 1 fold over iso | no binding | 1.03 fold over iso | no binding | 0.84 fold over iso | no binding | binding (fold over iso) [5]: 1.22 fold over iso; binding result [5]: no binding; binding (fold over iso) [8]: 1.16 fold over iso; binding result [8]: no binding; EC50 [13]: 0.0325 nM; binding (fold over iso) [14]: 0.97 fold over iso; binding result [14]: no binding; binding (fold over iso) [15]: 0.95 fold over iso; binding result [15]: no binding; binding (fold over iso) [16]: 0.83 fold over iso; binding result [16]: no binding
B3 | 0.091 nM | 0.084 nM | 0.01 nM | 0.19 nM | 2.33 nM | 0.0012 s⁻¹ | 513000 M⁻¹ s⁻¹ | 1.09 fold over iso | no binding | 76.5 fold over iso | 0.99 fold over iso | no binding | 0.106 nM | 0.131 nM | 0.99 fold over iso | no binding | 1.27 fold over iso | no binding | 0.87 fold over iso | no binding | EC50 [13]: 0.00175 nM; binding (fold over iso) [14]: 1.24 fold over iso; binding result [14]: no binding; binding (fold over iso) [15]: 1.27 fold over iso; binding result [15]: no binding; binding (fold over iso) [16]: 0.96 fold over iso; binding result [16]: no binding
